Experimental data: the supplement of paper PMC9170038

System: MS2 coat protein
Assay: apparent KD of MS2 coat protein; designed switch direction (-1 OFF switch, 1 ON switch): 1; higher = weaker reporter binding
Method in brief: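 Designed RNA switches were transcribed on Illumina chips by stalled E. coli RNA polymerase and titrated with SNAP-549-labelled MS2 coat protein from 0.7 or 1.5 nM, doubling to 3 µM. Step length ran from 0.8–1.5 h at the lowest concentration to 10–20 min at the highest. The apparent KD is the median over clusters for each design, from curve-fitted normalised cluster fluorescence.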

[1] = Eterna round: R95, input ligand: microRNA oligo, concentration not stated
[2] = input ligand: microRNA oligo, concentration not stated
[3] = Eterna round: R95, input ligand: FMN 200 uM
[4] = Eterna round: R95, input ligand: none

Row | Sequence | apparent KD of MS2 coat protein [1] [nM] | apparent KD of MS2 coat protein (input ligand: FMN 200 uM) [nM] | apparent KD of MS2 coat protein [2] [nM] | apparent KD of MS2 coat protein (input ligand: none) [nM] | apparent KD of MS2 coat protein [3] [nM] | apparent KD of MS2 coat protein [4] [nM]
1 | GAUUAACAUGAGGAUCACCCAUGUCGUUUAAUGGGAGGAUAUACGUGGACCGUAGUCCGCGUAGAAGGCCUAAUUG [JL-ss1-3.22 janelle mod] (puzzle: Same State 1) | 76.1 |  |  |  |  | 
2 | GCACCUCGAUGAGGAUAUACAAGCGGAGAUUACAUGAGGAUCACCCAUGUGUGUCGCUUUCGAUGGUAGAAGGCAUACGAGGCA [Eternabot solution 14] (Eterna round: R96, puzzle: Same State NG 2) |  | 16.6 | 52.5 | 59.2 |  | 
3 | AUCCUACAUGAGGAUCACCCAUGUGACGCCUCGAUAGGAUAUGCGUGUGCCUUGGCGCAUGCAGAAGGAUUGUAGC [JL Aveso mod 6] (puzzle: Same State 1) | 30.5 |  |  |  |  | 
4 | AAUUAAUUAAUACAUGAGGAUCACCCAUGUAAUUAUUAGAUCUAGGAUAUCAGCUCGUUUAGAGCUGAGAAGGAGAUCACAUGU [SSNG3/18-B3] (Eterna round: R96, puzzle: Same State NG 3) |  |  | 15.1 |  |  | 
5 | AUUUAACAAGCUUUUUGCUCGUCUUAUAAACAUGAGGAUCACCCAUGUAAUAGCGUGAGAGUAAUUUAUUAAAUAAU [JMF 92] (puzzle: Sensor for hsa-mir-208a) | 41 |  |  |  | 15.6 | 15.6
6 | GAGUGGUAAAGAGGAUAUGCAUUGUUAUUCACUGCAGAAGGUUUUAACAUGAGGAUCACCCAUGUAGGACUAUUCCUGUGUUUC [Parity 64 - Jieux - Same State NG 1] (Eterna round: R96, puzzle: Same State NG 1) |  |  | 10.3 |  |  | 
7 | GGAAUAUUUACAGGAUAUGAUUUGUUAAGUCGAUCAGAAGGGUGGAUGUCUUACACGGUUUGUUACAUGAGGAUCACCCAUGUC [SameState NG1 #14] (Eterna round: R96, puzzle: Same State NG 1) |  | 73.3 | 74 | 176 |  | 
8 | UUUAGAUCGCGAGGAUAUCGCGAGGAUCACCCGUGAGAAGGCGCAGAGCCGAGGAUCACCCGGCUGAUCCUGAGAAGGAGGUCA (Eterna round: R96, puzzle: Same State NG 1) |  | 91.7 | 206 | 250 |  | 
9 | GGUUUAGUCGAGUACCGUUCCACUCGAAAACAUGAGGAUCACCCAUGUUUGGGACAAGCUUUGCUCCUCGUCUUUCC [Inardiza] (puzzle: Sensor for hsa-mir-208a) | 64.8 |  |  |  | 29.6 | 36.6
10 | AGUUGUGGAAAACUAUAGCAAAAGCAUGUACAUGAGGAUCACCCAUGUCAUGUACAAGCUUUUUGCUCGUCUUAUGG [ak 3 mod of one Eli's designs.] (puzzle: Sensor for hsa-mir-208a) | 13.9 |  |  |  | 25 | 50.3
11 | GCUCGAUGAGCGGUUUACAUGAGGAUCACCCAUGUAAAUGGGCAGGAUAUUUACGUGCUUUGUGUAGAGAAGGGCCCAUCGAGC [SameState NG3 #75] (Eterna round: R96, puzzle: Same State NG 3) |  | 18.1 | 47.4 | 112 |  | 
12 | AUUUUAAAACAUGAGGAUCACCCAUGUUACAAGCUUUUUUUUUUUUUUUUUUUUUGGUGAUCCUCAGCUCGUCUUAU [lrlee 1] (puzzle: Sensor for hsa-mir-208a version 2) | 5.16 |  |  |  | 1.51 | 0.902
13 | CGUUCACAUGAGGAUCACCCAUGUCAGAUUUGGUCAGGAUAUGGUCGGCUUCCGCUAUUGCCAGAAGGGACUGUUG [JR_SS001_Sub705] (Eterna round: R96, puzzle: Same State 1) |  | 24.3 | 28.8 | 35.2 |  | 
14 | CUGCUCGUGUGAGGAUAUGCCGCCGUUUCGGCUGCAGAAGGUGCUACGUUACAUGAGGAUCACCCAUGUCUCUGUUGUUUCGUU [salish99_SSNG1_r04_947] (Eterna round: R96, puzzle: Same State NG 1) |  | 20.2 | 19 | 22.8 |  | 
15 | AACAUUCUAUCUCAGGAUAUCAUGUCAAAGACAUGAGGAUCACCCAUGUACCAGGAAACUGGUUAUGAGAAGGGAGAUAGAAUGG [Mat - Same State 2 - Mod - D48] (puzzle: Same State 2) | 195 |  |  |  | 182 | 624
16 | AGGAAGGAGACUGAGGAUAUCGUUGAGAGGACAUGAGGAUCACCCAUGUGUAUAGGAUUGGAGAACGAGAAGGCAGAGGAGUGGG [JR_SS2_Sub047] (puzzle: Same State 2) | 76.2 |  |  |  | 58 | 101

Row | Sequence | apparent KD of MS2 coat protein [1] [nM] | apparent KD of MS2 coat protein (input ligand: FMN 200 uM) [nM] | apparent KD of MS2 coat protein [2] [nM] | apparent KD of MS2 coat protein (input ligand: none) [nM] | apparent KD of MS2 coat protein [3] [nM] | apparent KD of MS2 coat protein [4] [nM]
17 | AGGCUCAGACGAGGAUAUAUGCGAUCACAUGAGGAUCACCCAUGUCUCGAGCUUCGGCUCGAGGCAUAGAAGGCGUCUGAGCCA [SSNG2/4-A1] (Eterna round: R96, puzzle: Same State NG 2) |  | 16.4 | 31.2 | 38.4 |  | 
18 | UAGGAGAGUAGAACAUGAGGAUCACCCAUGUAACCUCAUGUAUAGGAUAUGUUAAGAGUAGUAGAACAGAAGGAUAAGUAGGAU [Default title] (Eterna round: R96, puzzle: Same State NG 3) |  | 694 | 494 | 655 |  | 
19 | UACAAUCUAUCUGAGGAUAUCAUGUAUUAAACAUGAGGAUCACCCAUGUGCAGGAAAACUGCAUAUGAGAAGGCAGAUAGAUUGU [salish99_ss2_r3_064] (puzzle: Same State 2) | 41.9 |  |  |  | 428 | 168
20 | UAUGAUGCCGUAGGAUAUCUAGGAUAUGGACGAGGAUCACCCGAGCAGCAUCAGCGCACCAGAGGAGAGAAGGACGCUUUGGAA [pwkr ssNG2 2F5 2FMN.22] (Eterna round: R96, puzzle: Same State NG 2) |  | 477 | 658 | 486 |  | 
21 | GUACUACAUGAGGAUCACCCAUGUUACCUUCACGGAGGAUAUAGGAAAUGAGGUGAGAUGCUAGAAGGCCGAGGAA [Candy Rainbow 4] (puzzle: Same State 1) | 78.3 |  |  |  | 102 | 95.9
22 | UUAAUGAAGUAAGGAUAUACAUGAGGAUCACUCGUAGAAGGUACUAUACAUGAGGAUCACCCAUGUUCCGGUCAGAAGACUGGA [Mat - Same State NG 1 - JL mod - D3] (Eterna round: R96, puzzle: Same State NG 1) |  | 598 | 411 | 316 |  | 
23 | UUACGUACGUAUGAGGAUAUCCAUAAUAAGACAUGAGGAUCACCCAUGUAAACAAAACAAUAAUGGGAGAAGGCAUACGUACGAA [Mat - Same state - Malcolm Mod - D135] (Eterna round: R96, puzzle: Same State 2) |  |  | 53 |  |  | 
24 | GCUACCAUUGAAGCCUACAUGAGGAUCACCCAUGUAUGUAGGCAGGAUAUCGAUUGCAAAGCGAUCGAGAAGGGCUUAGGUAGC [Mat - Same State NG 3 - JL Mod - D90] (Eterna round: R96, puzzle: Same State NG 3) |  | 30.8 | 52.2 | 79.1 |  | 
25 | ACAUGAGAAUGAGGAUAUGUUGUACCUACAUGUGACAUGAGGAUCACCCAUGUGGUAAGUAUGAUACAGAAGGCAUAGAUAUGU [Equivalance 62 - Jieux - Same State NG 2] (Eterna round: R96, puzzle: Same State NG 2) |  | 18.9 | 18 | 32.2 |  | 
26 | UUAUUAUAUAUAGGAUAUUGAUGUAAUUUAUUUCAAGAAGGAUAUACAUGAGGAUCACCCAUGUUGGAUAGGGUUAGUUUGUUU [JR_SSNG1_Sub079] (Eterna round: R96, puzzle: Same State NG 1) |  |  | 74 |  |  | 
27 | AGCUAGUACCGAGGAUAUACAUACAUGAGGAUCACCCAUGUAUACAUGAAUUUAUGAGACUACAUGUAGAAGGCGGUACUAGCA [JL SSNG2 1.21] (Eterna round: R96, puzzle: Same State NG 2) |  |  | 40.1 |  |  | 
28 | CCGGUUAAUGGAGGAUAUGGAGCCUUAUUGGCUCCAGAAGGCUAACAUGAGGAUCACCCAUGUUUACCGGCGGUCAAUAGACCG [Eli NG1ss - 62] (Eterna round: R96, puzzle: Same State NG 1) |  | 11 | 11 | 18.8 |  | 
29 | CAAAAUUAGUAGGAUAGGUACCCAGGAUGACAUGAGGAUCACCCAUGUAAGAGCUUUUUGCUCGUCAUUAACAGUUG [JR_SHM208a_Sub016] (puzzle: Sensor for hsa-mir-208a) | 55.7 |  |  |  | 55.7 | 68
30 | GGAGCCUGCACUGAGGAUAUUCAUAGUGUAACAUGAGGAUCACCCAUGUAGGCCCUGAGGCCUUGGGAGAAGGCAGUGCGGCUCG [JL-ss2-3.05 ViennaUCT mod] (puzzle: Same State 2) | 355 |  |  |  | 27.9 | 447
31 | AAGGGCGGAAACAACAUGAGGAUCACCCAUGUUGCCGAAAGGCAGGAUAUCCGGCGAAAGCAGAAGGAGAAGGGUCAAGAACCA [AK SSNG3-V2-42.1] (Eterna round: R96, puzzle: Same State NG 3) |  | 39 | 16 | 22.5 |  | 
32 | AUUUGGUAACGAGGAUAUCGUUUUUGUUUUCUUCGAGAAGGCGUUAUUGUUUAUUUCUAUUGUUACAUGAGGAUCACCCAUGUU [JR_SSNG1_Sub056] (Eterna round: R96, puzzle: Same State NG 1) |  | 15.4 | 19 | 21.7 |  | 
